Positions count from the first letter of the chain named. Names and notes keep the numbering of the source.
Key:
[1] = system: Cg10062 (E114N); assay: In vitro 3-HP synthesis from ACA with cofactor recycling (Cg10062 (E114N), YdfG, PTDH), HPLC and 1H NMR; assay type: biochemical, Corynebacterium glutamicum; conditions: 100 mM ACA, 0.001-1 eq NADP+; hydration significantly faster at lower NADP+
Excerpt: This in vitro pathway developed in this study utilizes the novel Cg10062 (E114N) hydratase-only mutant with two other enzymes, YdfG and PTDH (FIG. 1). YdfG is a NADP^+-dependent 3-hydroxy acid dehydrogenase from E. coli and has previously been used for the in vivo production of 3-HP via the β-alanine pathway. […] For our system to be applied practically, the cost of cofactor is an important consideration. NADPH is an expensive cofactor and in order for the pathway to be an efficient, cost-effective pathway, the use of sub-stoichiometric amounts of co-factor was carried out. […] The formation of 3-HP in these assays were also confirmed using ^1H NMR (FIG. 4A-C).
All stocks solutions were prepared in 100 mM sodium phosphate pH 8.0. Ethylene glycol (20% w/v) was added to all enzyme stock solutions. […] Each reaction was carried out in duplicate at 25° C. with constant slow mixing on a rocking platform. Reactions were initiated by the addition of ACA. Samples from each reaction were quenched at indicated timepoints for analysis by HPLC and ^1H NMR, as described below.
All samples (100 μL) were quenched and by addition of 5 μL of 18 M sulfuric acid. The final volume was adjusted to 500 μL using 0.01 N sulfuric acid. The samples were prepared for HPLC using Whatman Mini-UniPrep® G2 syringeless filters with a glass microfiber membrane. […]

[2] = target: T1, Corynebacterium glutamicum Cg10062 variant E114N, SEQ ID NO: 62 (Corynebacterium glutamicum, UniProt Q8NU77, E115N); assay: Michaelis-Menten kinetics of ACA hydration, coupled enzyme assay (MSAD/ADH, NADH oxidation at 340 nm)
T1 sequence (Q8NU77 with tags, fused parts or gaps E115N): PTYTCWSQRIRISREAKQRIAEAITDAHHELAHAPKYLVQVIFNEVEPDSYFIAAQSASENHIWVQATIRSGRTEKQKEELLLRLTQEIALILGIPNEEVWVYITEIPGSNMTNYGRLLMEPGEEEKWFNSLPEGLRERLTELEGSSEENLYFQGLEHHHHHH
Method: The amount of enzyme used in each assay was varied in order to observe measurable activity. […] The ratios of MSA and acetaldehyde formed by each enzyme was determined by the coupled enzyme assay (FIG. 13), using the differences in rates in the presence and absence of MSAD (Table 10). […] All other components used for steady-state kinetics were identical to those used in the initial screening assays.

[3] = target: engineered phosphite dehydrogenase PTDH (12x Opt PTDH) from Pseudomonas stutzeri, SEQ ID NO: 73 (Stutzerimonas stutzeri, UniProt O69054, A319E/A325V/C336D/D13E/E130K/E175A/E332N/I150F/I313L/L276Q/M26I/Q132R/Q137R/Q215L/R275Q/V315A/V71I); assay: Michaelis-Menten kinetics of PTDH with sodium phosphite, reduction of NADP^+ at 340 nm; assay type: biochemical; conditions: sodium phosphite 10-1000 μM, NADP^+ 0.3 mM; 100 mM sodium phosphate pH 8.0, 25 °C
Method: All assays were carried out in triplicate at 25° C. in 100 mM sodium phosphate pH 8.0 in a final volume of 200 μL, unless otherwise specified. All stock solutions were prepared in 100 mM sodium phosphate pH 8.0, unless otherwise specified. A sodium phosphite stock solution was prepared by dissolving an appropriate amount of the solid in a volumetric flask with water.
The assay contained PTDH (0.05 mg mL^−1, 10 μL of a 1 mg mL^−1 stock) and NADP^+ (0.3 mM, 10 μL of a 5 mg mL^−1 stock). The assays were initiated with the addition of sodium phosphite in varying concentrations (10-1000 μM). See. FIG. 23.

[4] = substrate: C#CC(=O)O; assay: purified protein, by the assay type; conditions: other: ACA, 100 mM sodium phosphate pH 8.0, 25 °C
[5] = substrate: O=CCC(=O)O; assay: purified protein, by the assay type; assay type: biochemical, Pseudomonas putida KT2440; conditions: other: MSA generated in situ from ACA (50-10,000 μM), NADH 0.1 mg/mL, 100 mM potassium phosphate pH 8.0, 25 °C
Method: MmsB was characterized using the coupled enzyme assay show in FIG. 28. All assays were carried out in triplicate at 25° C. in 100 mM potassium phosphate pH 8.0, at a final volume of 1 mL. All stock solutions used for the assays were prepared in 100 mM potassium phosphate pH 8.0. […] The assay contained Cg10062 (E114N) (0.8 U), MmsB (0.001 mg mL−1, 10 μL of a 0.1 mg mL−1 stock) and NADH (0.1 mg/mL, 20 μL of a 5 mg mL−1 stock). […] All other components and methods used for steady-state kinetics were identical to those described in Example 5.

[6] = substrate: O=CCC(=O)O; assay: purified protein, by the assay type; assay type: biochemical, Escherichia coli; conditions: other: MSA generated in situ from ACA (10-2000 μM), NADPH 0.3 mM, 100 mM sodium phosphate pH 8.0, 25 °C
Method: YdfG was characterized using the coupled enzyme assay show in FIG. 19. All assays were carried out in triplicate at 25° C. in 100 mM sodium phosphate pH 8.0, in a final volume of 200 μL, unless otherwise specified. All stock solutions prepared for the assays were prepared in 100 mM sodium phosphate pH 8.0. […] The assay contained a large excess of Cg10062 (E114N) (2 U), YdfG (0.005 mg mL^−1, 10 μL of a 0.1 mg mL^−1 stock) and NADPH (0.3 mM, 10 μL of a 5 mg mL^−1 stock).

[7] = cited from earlier work; for activity relative to the Cg10062 / product of ACA hydration: previously described variants, in words
[8] = Coupled enzyme assay (ADH, with and without MSAD): hydratase and hydratase/decarboxylase activity and product profile of Cg10062 and variants; assay type: biochemical; conditions: for Rate in the absence of MSAD / Rate in the presence of MSAD: ACA 0.5 mM, pH 8, enzyme final concentration differs per variant (0.025-1.50 mg mL^−1), rates not directly comparable; for Product Ratio (%) acetaldehyde / Product Ratio (%) malonate semialdehyde: from Cg10062 activity in the presence and absence of MSAD; for Product Ratio (%) acetaldehyde: * from non-enzymatic decarboxylation of malonate semialdehyde; for Product Ratio (%) malonate semialdehyde: ACA substrate, pH 8.0, 25° C.
Method: Steady-state kinetics were carried out using a Molecular Devices SpectraMax iD3 multi-mode microplate reader and Shimadzu UV2600 spectrophotometer. All assays were carried out in triplicate at 25° C. in 100 mM sodium phosphate pH 8.0 with a final volume of 200 μL, unless otherwise specified. The reduction of acetaldehyde by NADH-dependent alcohol dehydrogenase (ADH) was monitored by following the oxidation of NADH at 340 nm (ε=6220 M^−1 cm^−1).
All stock solutions, except ADH, required for the kinetics assays used for determining hydratase and hydratase/decarboxylase activities were prepared in 100 mM sodium phosphate pH 8.0. […] Stock solutions of ADH were prepared using deionized water, as recommended by the manufacturer. […] The final pH of each assay was 8.
The amount of enzyme used in each assay was varied in order to observe measurable activity. Thus, the rates obtained from this experiment were not used directly to compare the enzyme activity. These activities were only used for establishing the product profile of each enzyme. The ratios of MSA and acetaldehyde formed by each enzyme was determined by the coupled enzyme assay (FIG. 13), using the differences in rates in the presence and absence of MSAD (Table 10). […] All other components used for steady-state kinetics were identical to those used in the initial screening assays.

Chain of engineered phosphite dehydrogenase PTDH (12x Opt PTDH) from Pseudomonas stutzeri, SEQ ID NO: 73 (O69054 other isoform, or with tags, fused parts or gaps with the stated changes): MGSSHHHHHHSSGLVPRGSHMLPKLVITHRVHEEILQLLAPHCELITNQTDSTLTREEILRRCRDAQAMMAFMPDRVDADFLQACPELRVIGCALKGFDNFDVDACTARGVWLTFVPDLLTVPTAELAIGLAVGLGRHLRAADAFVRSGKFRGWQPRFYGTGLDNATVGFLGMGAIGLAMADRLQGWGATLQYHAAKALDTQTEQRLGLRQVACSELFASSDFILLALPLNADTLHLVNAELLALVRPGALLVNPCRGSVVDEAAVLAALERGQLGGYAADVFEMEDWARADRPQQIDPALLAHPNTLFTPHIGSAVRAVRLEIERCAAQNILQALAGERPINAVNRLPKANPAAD

NADP(H)
effect on Cg10062 (E114N) (hydration of ACA to MSA) [1]: inhibitory effect

C#CC(=O)O [ACA, acetylenecarboxylic acid]
kcat fold higher than Cg10062 (E114D) ([2]; ACA hydration, relative to E114D): 1.5 fold
kcat fold higher than Cg10062 (E114Q) ([2]; ACA hydration, relative to E114Q): 3 fold
overall catalytic efficiency relative to wild-type ([2]; ACA hydration, relative to wild-type Cg10062): comparable to that of the wild-type enzyme
kcat ([2]; ACA, 100 mM sodium phosphate pH 8.0, 25 °C): 1.04 ± 0.07 s⁻¹

O=[PH]([O-])[O-].[Na+].[Na+] [sodium phosphite]
Km [3]: 778 ± 44 µM
kcat [3]: 3.45 ± 0.06 s⁻¹

B1: Corynebacterium glutamicum Cg10062 variant E114N, SEQ ID NO: 62 (Corynebacterium glutamicum ATCC 13032; E115N) (protein)
chain: T1 sequence (Q8NU77 with tags, fused parts or gaps E115N)
Km [4]: 45 ± 1 µM

B2: Corynebacterium glutamicum Cg10062, wild-type, SEQ ID NO: 59 (Corynebacterium glutamicum ATCC 13032) (protein)
chain: T1 sequence (Q8NU77 with tags, fused parts or gaps E115N) with N114E
Km [4]: 66 ± 4 µM
kcat [4]: 8.21 s⁻¹
kcat/Km [4]: 124000 M⁻¹ s⁻¹

B3: P. putida KT2440 3-hydroxyisobutyrate dehydrogenase MmsB, SEQ ID NO: 76 (Pseudomonas putida KT2440) (protein)
chain: MRIAFIGLGNMGAPMARNLIKAGHQLNLFDLNKAVLAELAELGGQISPSPKDAAANSELVITMLPAAAHVRSVYLNEDGVLAGIRPGTPTVDCSTIDPQTARDVSKAAAAKGVDMGDAPVSGGTGGAAAGTLTFMVGASTELFASLKPVLEQMGRNIVHCGEVGTGQIAKICNNLLLGISMIGVSEAMALGNALGIDTKVLAGIINSSTGRCWSSDTYNPWPGIIETAPASRGYTGGFGAELMLKDLGLATEAARQAHQPVILGAVAQQLYQAMSLRGEGGKDFSAIVEGYRKKDENLYFQGLEHHHHHH
Km [5]: 2220 ± 192 µM
kcat [5]: 101 ± 5 s⁻¹
kcat/Km [5]: 45500 ± 5900 M⁻¹ s⁻¹

B4: E. coli 3-hydroxy acid dehydrogenase YdfG, SEQ ID NO: 75 (Escherichia coli K-12) (protein)
chain: MIVLVTGATAGFGECITRRFIQQGHKVIATGRRQERLQELKDELGDNLYIAQLDVRNRAAIEEMLASLPAEWCNIDILVNNAGLALGMEPAHKASVEDWETMIDTNNKGLVYMTRAVLPGMVERNHGHIINIGSTAGSWPYAGGNVYGATKAFVRQFSLNLRTDLHGTAVRVTDIEPGLVGGTEFSNVRFKGDDGKAEKTYQNTVALTPEDVSEAVWWVSTLPAHVNINTLEMMPVTQSYAGLNVHRQENLYFQGLEHHHHHH
Km [6]: 137 ± 18 µM
kcat [6]: 6.62 ± 0.43 s⁻¹
kcat/Km [6]: 48300 ± 7100 M⁻¹ s⁻¹

B5: Cg10062: Tautomerase superfamily enzyme from Corynebacterium glutamicum, SEQ ID NO: 21; His6-tagged form SEQ ID NO: 59 (protein)
chain: PTYTCWSQRIRISREAKQRIAEAITDAHHELAHAPKYLVQVIFNEVEPDSYFIAAQSASENHIWVQATIRSGRTEKQKEELLLRLTQEIALILGIPNEEVWVYITEIPGSNMTEYGRLLMEPGEEEKWFNSLPEGLRERLTELEGSSE
modifications: Cg10062 from Corynebacterium glutamicum codon-optimized for Escherichia coli
acetaldehyde in product mixture from ACA ([7]; background statement): 75%
malonate semialdehyde in product mixture from ACA ([7]; background statement): 25%
Rate in the absence of MSAD [8]: 120 µM/min
Rate in the presence of MSAD [8]: 146 µM/min
Product Ratio (%) acetaldehyde [8]: 81%
Product Ratio (%) malonate semialdehyde [8]: 19%

B6: Cg10062(E114Q): Previously described Cg10062 variant with E114Q mutation, SEQ ID NO: 22 and 60 (protein)
chain: B5 chain with E114Q
modifications: Cg10062(E114Q) from Corynebacterium glutamicum codon-optimized for Escherichia coli
activity relative to the Cg10062 [7]: significantly lower activity
product of ACA hydration [7]: MSA exclusively
Rate in the absence of MSAD [8]: no activity
Rate in the presence of MSAD [8]: 102 µM/min
Product Ratio (%) acetaldehyde [8]: <1* %
Product Ratio (%) malonate semialdehyde [8]: >99%

B7: Cg10062(E114D): Previously described Cg10062 variant with E114D mutation, SEQ ID NO: 23 and 61 (protein)
chain: B5 chain with E114D
modifications: Cg10062(E114D) from Corynebacterium glutamicum codon-optimized for Escherichia coli
activity relative to the Cg10062 [7]: significantly lower activity
product of ACA hydration [7]: MSA exclusively
Rate in the absence of MSAD [8]: no activity
Rate in the presence of MSAD [8]: 90 µM/min
Product Ratio (%) acetaldehyde [8]: <1* %
Product Ratio (%) malonate semialdehyde [8]: >99%

Source: patent publication US20240043883A1 (Board of Trustees of Michigan State University, priority 2021, published 2024)
